One may read the Kd as the free concentration of one partner at which half of the binding sites on the other are occupied at equilibrium, for simple one-to-one binding. What is called IC50 is the concentration at which inhibition is half-maximal. Read a low IC50 as greater potency in that assay.

For test [1], the target named is binding sites on unactivated human platelets. The test is described as follows: Scatchard analysis of CN binding to unactivated human platelets.
Test [2] has as its target canine platelet (GP)IIb/IIIa on canine platelets (platelet rich plasma) (canine, UniProt Q9TUN8 32-1036; A0A8I3PMU9 158-919).
Test [3] deals with human platelet membrane glycoprotein (GP)IIb/IIIa on human platelets (platelet rich plasma) (human, UniProt P08514 32-1039; P05106 27-788).

B1: contortrostatin (CN), native homodimer purified from Agkistrodon contortrix contortrix venom (ligand)
chain: DAPANPCCDAATCKLTTGSQCADGLCCDQCKFMKEGTVCRRARGDDLDDYCNGISAGCPRNPFHA
In the case of B1, the Kd in test [1] came to 37 nM. In addition, the IC50 in test [2] was found to be 0.24 µg/mL; in test [3] it was 0.4 µg/mL.

Source of the values: EP1117419B1 (The University Of Southern California, dated 2010).
